Tests used:
GST-SUV39H1 ΔSET = molecular target: T1, GST-SUV39H1 ΔSET (human, UniProt O43463 1-249); test: pull-down; wild type or mutant GST-SUV39H1 or GST (2 ug) bound to Glutathione-Sepharose 4B, mixed with His-tagged Tax (2 ug) in cold PBS, 4°C, one hour; immunoblot with Lt-4; band intensities by NIH Image; settings: both partners purified
T1 construct: human SUV39H1 that lost the SET domain and the C-terminal cysteine-rich region but keeps the SET-associated Cys-rich (SAC) domain; the text states no limits; source: bacterially expressed (pGEX5X-3), purified (Glutathione Sepharose 4B)
T1 sequence (looked up): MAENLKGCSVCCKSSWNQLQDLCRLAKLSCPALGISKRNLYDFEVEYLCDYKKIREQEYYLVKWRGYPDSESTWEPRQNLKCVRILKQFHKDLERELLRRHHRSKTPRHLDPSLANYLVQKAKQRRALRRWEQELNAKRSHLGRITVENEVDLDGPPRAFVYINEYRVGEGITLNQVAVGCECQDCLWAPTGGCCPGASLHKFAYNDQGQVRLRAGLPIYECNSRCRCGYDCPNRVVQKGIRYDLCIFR

GST-SUV39H1 Nchromo = molecular target: T2, GST-SUV39H1 Nchromo (human, UniProt O43463 1-118); test: as above; settings: both partners purified
T2 construct: human SUV39H1, C-terminal deletion up to amino acid 118 (SAC domain lost); source: bacterially expressed (pGEX5X-3), purified (Glutathione Sepharose 4B)
T2 sequence (looked up): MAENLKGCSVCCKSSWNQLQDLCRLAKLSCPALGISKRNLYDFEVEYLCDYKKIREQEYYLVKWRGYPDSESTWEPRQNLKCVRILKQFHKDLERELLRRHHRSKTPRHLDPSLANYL

[1] = molecular target: T3, bacterially expressed GST-SUV39H1, wild type (human, UniProt O43463 1-412); test: pull-down; GST-SUV39H1 bound to Glutathione-Sepharose 4B, mixed with in vitro translated 35S-labeled Tax proteins (one fourth of the reaction mixture); autoradiography, signals by BAS2000; settings: one partner purified
T3 construct: human SUV39H1, wild type; cDNA amplified from the start to the stop codon (SUV39H1-F1, SUV39H1-R1); the text counts the protein to amino acid 412; also called SUV39H1-WT; GST-fusion SUV39H1; source: bacterially expressed (pGEX5X-3), purified (Glutathione Sepharose 4B)
T3 sequence (looked up): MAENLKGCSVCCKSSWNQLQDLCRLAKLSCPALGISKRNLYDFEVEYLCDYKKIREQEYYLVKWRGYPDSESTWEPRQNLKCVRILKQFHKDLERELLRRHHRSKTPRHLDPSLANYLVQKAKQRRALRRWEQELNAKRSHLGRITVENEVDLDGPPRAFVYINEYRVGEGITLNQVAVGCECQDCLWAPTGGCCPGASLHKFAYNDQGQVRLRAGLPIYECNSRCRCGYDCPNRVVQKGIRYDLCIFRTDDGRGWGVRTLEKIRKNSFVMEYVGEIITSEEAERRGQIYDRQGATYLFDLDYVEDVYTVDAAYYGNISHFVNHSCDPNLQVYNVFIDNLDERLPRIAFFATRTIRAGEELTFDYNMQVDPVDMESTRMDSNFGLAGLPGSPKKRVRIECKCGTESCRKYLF

B1: histidine-tagged wild type Tax (His-Tax) (natural protein)
chain: not shown
notes: Tax protein of HTLV-1, wild type; also called His-tagged Tax protein; source: bacterially expressed (pET3d/Tax), purified (ProBond Resin)
- band intensity relative to the wild type (GST-SUV39H1 ΔSET): < 0.5 of the band intensity of the wild type
- band intensity relative to the wild type (GST-SUV39H1 Nchromo): ~0.1 of the band intensity of the wild type

B2: in vitro translated TaxN180 (domain or fragment)
chain: not shown
modifications: labeled with 35S-methionine
notes: HTLV-1 Tax with a C-terminal deletion up to 180 amino acids; source: in vitro translated (TNT QuickCoupled Transcription/Translation Systems, Promega)
- radioactivity relative to the wild type Tax [1]: ~0.5 of the radioactivity of the wild type Tax

Reference: article PMC1363732, “SUV39H1 interacts with HTLV-1 Tax and abrogates Tax transactivation of HTLV-1 LTR” (Retrovirology, 2006)
